For experiment [1], the target named is LCTX-F2 (Lycosa singoriensis). The experiment in a line: SPR; Biacore 3000; LCTX-F2 amine-coupled to CM5 (2,000 RU); FXIIa, kallikrein, FXa and thrombin as analytes, 0-100 ug/ml in twofold dilutions; 25 C; HBS-EP (10 mM HEPES pH 7.4, 3 mM EDTA, 150 mM NaCl, 0.05% P20); 30 ul/min, 120 s association, 300 s dissociation.
Experiment [2] addresses thrombin (UniProt P00734).
The target of experiment [3] is kallikrein.
For experiment [4], the target named is activated factor XII.
For experiment [5], the target named is activated factor X.

As usually defined, the Kd is the constant that tells how readily two partners part at equilibrium. Take activated factor XII (enzyme): the Kd in experiment [1] amounted to 7200 nM. In other words, the single-digit micromolar range.
In turn, LCTX-F2 (peptide) had an increase of the activity of thrombin (chromogenic substrate) at 3 µM LCTX-F2 in experiment [2] of 36.9%. The increase of the activity of kallikrein (chromogenic substrate) at 3 µM LCTX-F2 in experiment [3] was 33.3%. In addition, the increase of the relative protease activity of FXIIa (chromogenic substrate) at 0.03, 0.3 and 3 µM LCTX-F2: 1.2%, 44.0%, 96.0% in experiment [4] is 96%. In experiment [5], this substance displayed an increase of the activity of FXa (chromogenic substrate) at 3 µM LCTX-F2 of 34.8%.
On to activated factor X (enzyme), for which the Kd in experiment [1] was 180 nM.
The same measure, in the same setting: next, kallikrein (enzyme): 4600 nM; “thrombin (from UniProt P00734 364-622; P00734 364-622) (enzyme)”: 700 nM.

Source of the values: PMC7308506.
